The assay concerns the target T1, MPERp (HIV-1 (HXBc2 isolate), C-terminal carboxamide).
T1 construct: also called MPER peptide
Briefly: cross-linking; peptides (10 µg) in solution incubated with 20 µM BS3 for 1 h at 37°C, TCA precipitation, Tricine SDS-PAGE; detection by Western blot with MAb2F5 or by NBD fluorescence in the gel. To be noted: both partners purified.

The text below walks through data of PMC3528738 (PLoS ONE, 2012).

Where no end group is shown, it is not given here.

T1 sequence (P03375 656-683): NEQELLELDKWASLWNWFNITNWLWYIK

B1: FPp (peptide)
peptide: AVGIGALFLGFLGAAGSTMGARSKKK-NH2
notes: HIV-1 gp160 (gp41 amino-terminal fusion peptide), HXBc2 isolate, residues 512-534; three lysines added at the C-terminus, not of gp160 (printed as 512-534-KKK); C-terminal KKK is added to the natural stretch; also called FP peptide; fusion peptide; source: synthetic peptide (solid-phase synthesis, Fmoc chemistry; purified by HPLC)
In the case of B1, the binding result was “binds”.
